How the values were obtained:
Assay in all cases: flow cytometry of CAR T cells stained with Fc-fusion antigen and anti-human Fc-specific antibodies
[1] = biological target: T1, CAR-25 (human, UniProt P01732 183-206; Q07011 214-255; P20963 52-163)
T1 construct: domain: transmembrane domain;domain: 4-1BB domain;domain: CD3zeta domain; Chimeric antigen receptor on transduced human T cells; also called pTRPE-C25-gs-BBz
Protocol: (§1) To create CAR-T expressing cells, human T cells from healthy donors were activated with anti-CD3 and anti-CD28 coated paramagnetic beads (DYNABEADS® Human T-Activator CD3/CD28, Life Technologies). One day following activation, cells were transduced with lentiviral vectors encoding GFRα4-directed CARs (original rabbit P4-10 and humanized versions), a CD19-directed control CAR (FMC63(cd8)bbz), or were left non-transduced (NTD). Cells were expanded and on day 7, cells were evaluated for cell-surface expression of the CARs by flow cytometry (FACSCalibur, BD Biosciences, Franklin Lakes, N.J.). Fluorescently-labeled goat anti-rabbit antibodies detected CAR P4-10, the original rabbit GFRα4-directed CAR, and fluorescently-labeled Protein L detected the murine CD19-directed CAR (FIG. 19A, “P410” and “19bbz”, respectively). Fluorescently-labeled rabbit anti-human antibodies (“RaH”) detected CARs 10, 14, 25, and 29 (FIG. 19B). Expression of cell-surface CARs were also detected by staining with antigen using recombinant human Fc-fusions of GFRα4 or CD19 antigen followed by detection of bound antigen with fluorescently-labeled anti-human Fc-specific antibodies (FIG. 19C). Appropriately, CD19-Fc only bound to CD19-directed CARs while GFRα4-Fc bound to both rabbit P4-10 and humanized P4-10 CARs but not the CD19-directed CAR.

[2] = biological target: T2, CAR-10 (human, UniProt P01732 183-206; Q07011 214-255; P20963 52-163)
T2 construct: domain: transmembrane domain;domain: 4-1BB domain;domain: CD3zeta domain; Chimeric antigen receptor on transduced human T cells; also called CAR10bbz; pTRPE-C10-gs-BBz
Protocol: as §1

[3] = biological target: T3, CAR-14 (human, UniProt P01732 183-206; Q07011 214-255; P20963 52-163)
T3 construct: domain: transmembrane domain;domain: 4-1BB domain;domain: CD3zeta domain; Chimeric antigen receptor on transduced human T cells; also called pTRPE-C14-gs-BBz
Protocol: as §1

[4] = biological target: T4, CAR-29 (human, UniProt P01732 183-206; Q07011 214-255; P20963 52-163)
T4 construct: domain: transmembrane domain;domain: 4-1BB domain;domain: CD3zeta domain; Chimeric antigen receptor on transduced human T cells; also called pTRPE-C29-gs-BBz
Protocol: as §1

Measured: binding result

T1 sequence (P01732 other isoform, or with tags, fused parts or gaps limits assumed): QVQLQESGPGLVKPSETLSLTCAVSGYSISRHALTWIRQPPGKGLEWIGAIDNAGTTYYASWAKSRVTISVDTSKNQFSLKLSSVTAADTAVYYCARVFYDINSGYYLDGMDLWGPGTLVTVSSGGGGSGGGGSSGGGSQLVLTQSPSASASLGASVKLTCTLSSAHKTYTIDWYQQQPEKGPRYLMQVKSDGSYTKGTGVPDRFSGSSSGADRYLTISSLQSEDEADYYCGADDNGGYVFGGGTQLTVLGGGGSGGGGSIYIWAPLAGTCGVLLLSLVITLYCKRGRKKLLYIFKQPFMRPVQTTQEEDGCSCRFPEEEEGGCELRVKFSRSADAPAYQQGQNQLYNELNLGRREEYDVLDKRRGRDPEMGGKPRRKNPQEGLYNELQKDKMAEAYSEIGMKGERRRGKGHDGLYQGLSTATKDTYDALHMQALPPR
T2 sequence (P01732 other isoform, or with tags, fused parts or gaps limits assumed): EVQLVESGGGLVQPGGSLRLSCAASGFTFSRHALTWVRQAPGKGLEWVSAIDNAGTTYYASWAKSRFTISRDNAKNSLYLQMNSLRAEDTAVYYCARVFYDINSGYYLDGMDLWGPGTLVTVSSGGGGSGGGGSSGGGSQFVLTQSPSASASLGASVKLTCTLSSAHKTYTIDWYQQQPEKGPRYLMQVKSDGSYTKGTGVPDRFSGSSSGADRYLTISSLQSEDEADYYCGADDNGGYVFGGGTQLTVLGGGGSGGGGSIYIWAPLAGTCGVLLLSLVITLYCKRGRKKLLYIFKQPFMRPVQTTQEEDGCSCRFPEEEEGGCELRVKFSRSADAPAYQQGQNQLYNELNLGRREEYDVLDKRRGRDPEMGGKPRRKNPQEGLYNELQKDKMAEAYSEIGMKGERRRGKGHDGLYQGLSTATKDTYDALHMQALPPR
T4 sequence (P01732 other isoform, or with tags, fused parts or gaps limits assumed): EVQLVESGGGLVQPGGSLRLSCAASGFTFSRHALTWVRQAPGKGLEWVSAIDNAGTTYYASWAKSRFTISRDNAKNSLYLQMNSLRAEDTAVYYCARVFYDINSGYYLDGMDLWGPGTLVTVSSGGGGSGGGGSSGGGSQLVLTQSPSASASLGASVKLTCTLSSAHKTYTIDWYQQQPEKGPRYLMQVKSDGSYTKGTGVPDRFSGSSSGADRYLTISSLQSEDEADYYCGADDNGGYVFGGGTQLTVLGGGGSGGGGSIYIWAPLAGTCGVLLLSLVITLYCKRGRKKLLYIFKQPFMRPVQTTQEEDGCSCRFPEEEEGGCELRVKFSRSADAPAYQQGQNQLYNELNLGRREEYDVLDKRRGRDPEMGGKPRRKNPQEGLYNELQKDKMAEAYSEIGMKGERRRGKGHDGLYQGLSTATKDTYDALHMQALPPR
T3 sequence (P01732 other isoform, or with tags, fused parts or gaps limits assumed): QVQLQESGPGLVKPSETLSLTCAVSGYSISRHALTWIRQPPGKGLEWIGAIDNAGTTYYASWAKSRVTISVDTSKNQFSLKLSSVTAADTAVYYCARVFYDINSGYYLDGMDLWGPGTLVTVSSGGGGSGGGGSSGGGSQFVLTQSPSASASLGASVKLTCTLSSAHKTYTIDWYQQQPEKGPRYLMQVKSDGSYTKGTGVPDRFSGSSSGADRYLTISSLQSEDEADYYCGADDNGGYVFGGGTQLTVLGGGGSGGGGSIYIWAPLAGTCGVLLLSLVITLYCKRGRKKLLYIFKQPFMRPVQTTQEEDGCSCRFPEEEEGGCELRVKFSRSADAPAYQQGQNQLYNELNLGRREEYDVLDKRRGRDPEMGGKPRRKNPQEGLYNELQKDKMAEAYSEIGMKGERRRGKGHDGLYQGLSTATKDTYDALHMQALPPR

B1: CD19-Fc (Fc fusion, UniProt P15391 20-291, looked up)
chain: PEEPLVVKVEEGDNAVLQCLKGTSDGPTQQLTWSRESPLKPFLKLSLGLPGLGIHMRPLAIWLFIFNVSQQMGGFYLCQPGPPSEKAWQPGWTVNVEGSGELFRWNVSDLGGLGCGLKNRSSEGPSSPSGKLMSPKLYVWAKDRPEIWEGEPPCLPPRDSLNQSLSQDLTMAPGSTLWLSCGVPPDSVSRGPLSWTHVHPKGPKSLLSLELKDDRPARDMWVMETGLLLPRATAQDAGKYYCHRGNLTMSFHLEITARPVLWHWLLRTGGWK
notes: The words recombinant human Fc-fusions leave open whether human means the Fc or the antigen; also called recombinant human Fc-fusion of CD19 antigen; Fc-conjugated soluble CD19; not shown: human Fc
no binding: all assays above
